Reference: US20230381281A1, “PHARMACEUTICAL COMPOSITION COMPRISING GLUCAGON/GLP-1/GIP TRIPLE AGONIST OR LONG-ACTING CONJUGATE THEREOF FOR PREVENTING OR TREATING LUPUS-RELATED DISEASES” (HANMI PHARM. CO., LTD., priority 2020, published 2023)
Bridge positions count the residues as written; N and C are the ends. Square brackets hold non-standard residues; d marks the D form. Ends that are not written are not given here. * marks the point of attachment. Acetyl(2-(4-imidazolyl)) = O=C(Cc1c[nH]cn1)*; Aib = CC(C)(N)C(=O)O

T1: human GIP receptor (human, UniProt P48546 22-466)
T1 sequence (looked up): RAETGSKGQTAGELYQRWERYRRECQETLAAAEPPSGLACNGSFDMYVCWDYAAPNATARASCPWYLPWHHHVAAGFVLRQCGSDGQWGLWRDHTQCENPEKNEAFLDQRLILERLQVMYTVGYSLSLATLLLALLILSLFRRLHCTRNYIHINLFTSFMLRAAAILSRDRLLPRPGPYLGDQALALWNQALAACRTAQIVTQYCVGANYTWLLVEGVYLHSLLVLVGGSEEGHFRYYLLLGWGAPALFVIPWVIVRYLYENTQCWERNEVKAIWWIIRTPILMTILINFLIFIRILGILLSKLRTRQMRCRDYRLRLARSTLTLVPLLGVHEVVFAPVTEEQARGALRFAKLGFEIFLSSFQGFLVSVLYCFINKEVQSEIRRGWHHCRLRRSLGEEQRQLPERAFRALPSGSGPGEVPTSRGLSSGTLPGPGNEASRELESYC

B1: Triple agonist of SEQ ID NO: 92 (peptide)
peptide: {Acetyl(2-(4-imidazolyl))}-[Aib]QGTFTSDYSIAMDEIHQKDFVNWLLAQKC
modifications: bridge 15-19
B2: Triple agonist of SEQ ID NO: 93 (peptide)
peptide: {Acetyl(2-(4-imidazolyl))}-[Aib]QGTFTSDYSKYLDEKRQKEFVNWLLAQKC
modifications: bridge 15-19
B3: Triple agonist of SEQ ID NO: 86 (peptide)
peptide: {Acetyl(2-(4-imidazolyl))}-[Aib]QGTFTSDYSKYLDEKRQKEFVNWLLAQC
modifications: bridge 15-19
B4: Triple agonist of SEQ ID NO: 88 (peptide)
peptide: {Acetyl(2-(4-imidazolyl))}-[Aib]QGTFTSDYSKYLDEKRQKEFVQWLLNTKC
modifications: bridge 15-19
B5: Triple agonist of SEQ ID NO: 11 (peptide)
peptide: {Acetyl(2-(4-imidazolyl))}-GEGTFTSDLSKYLDSRRQQLFVQWLKAGGPSSGAPPPSHG
B6: Triple agonist of SEQ ID NO: 91 (peptide)
peptide: {Acetyl(2-(4-imidazolyl))}-[Aib]EGTFTSDYSIAMDEIHQKDFVDWLLAEKC
modifications: bridge 15-19
B7: Triple agonist of SEQ ID NO: 10 (peptide)
peptide: H[Aib]QGTFTSDVSKYLDGQAAQEFVAWLLAGGGPSSGAPPPSC
B8: Triple agonist of SEQ ID NO: 94 (peptide)
peptide: {Acetyl(2-(4-imidazolyl))}-[Aib]QGTFTSDYSIAMDEIHQKDFVNWLLNTKC
modifications: bridge 15-19
B9: Triple agonist of SEQ ID NO: 98 (peptide)
peptide: Y[Aib]QGTFTSDYSKALDEKAAKEFVNWLLDHHPSSGQPPPSC
modifications: bridge 16-20
B10: Triple agonist of SEQ ID NO: 81 (peptide)
peptide: {Acetyl(2-(4-imidazolyl))}-[Aib]QGTFTSDYSKYLDEKRQKEFVQWLLNTC
modifications: bridge 15-19
B11: Triple agonist of SEQ ID NO: 100 (peptide)
peptide: Y[Aib]QGTFTSDYSKALDEKAAKEFVQWLLDQHPSSGQPPPSC
modifications: bridge 16-20
B12: Triple agonist of SEQ ID NO: 2 (peptide)
peptide: H[Aib]QGTFTSDVSSYLDGQAQKEFIAWLVKGC
B13: Triple agonist of SEQ ID NO: 82 (peptide)
peptide: {Acetyl(2-(4-imidazolyl))}-[Aib]QGTFTSDYSKYLDEKRQKEFVQWLLDTC
modifications: bridge 15-19
B14: Triple agonist of SEQ ID NO: 97 (peptide)
peptide: Y[Aib]QGTFTSDYSKYLDEKRAKEFVQWLLDCHPSSGQPPPS
modifications: bridge 16-20
B15: Triple agonist of SEQ ID NO: 14 (peptide)
peptide: {Acetyl(2-(4-imidazolyl))}-GQGTFTSDYSIQLDEIAVRDFVEWLKNGGPSSGAPPPSHG

Each binder was assayed against human GLP-1 receptor (human, UniProt P43220 24-463) (assay: cell-based or functional assay).

Question: Which “In vitro activity compared to native peptide (%) vs GLP-1” value (“In vitro activity … (%) vs GLP-1” below) does the source give for B1 here?
Answer: 0.8%

Question: How did the “In vitro activity … (%) vs GLP-1” value turn out when B2 was run?
Answer: 5.7%

Question: With B3 as the binder, how does the “In vitro activity … (%) vs GLP-1” value read?
Answer: 28.4%

Question: For B4, which “In vitro activity … (%) vs GLP-1” value is on record?
Answer: 9.6%

Question: For B5, which “In vitro activity … (%) vs GLP-1” value is on record?
Answer: 1.4%

Question: For B6, which “In vitro activity … (%) vs GLP-1” value is on record?
Answer: 31.9%

Question: B7 was tested. Which “In vitro activity … (%) vs GLP-1” value did it give?
Answer: 46%

Question: How did the “In vitro activity … (%) vs GLP-1” value turn out when B8 was run?
Answer: 0.5%

Question: Which “In vitro activity … (%) vs GLP-1” value does the source give for B9 here?
Answer: 28.1%

Question: Which “In vitro activity … (%) vs GLP-1” value does the source give for B10 here?
Answer: 7.8%

Question: With B11 as the binder, how does the “In vitro activity … (%) vs GLP-1” value read?
Answer: 42.2%

Question: How did the “In vitro activity … (%) vs GLP-1” value turn out when B12 was run?
Answer: 5.9%

Question: How did the “In vitro activity … (%) vs GLP-1” value turn out when B13 was run?
Answer: 9.5%

Question: B14 was tested. Which “In vitro activity … (%) vs GLP-1” value did it give?
Answer: 10.5%

Question: For B15, which “In vitro activity … (%) vs GLP-1” value is on record?
Answer: 28%

The binders below were run against T1, human GIP receptor (assay: cell-based or functional assay).

Question: How did the “In vitro activity compared to native peptide (%) vs GIP” value (from here on “In vitro activity … (%) vs GIP”) turn out when B1 was run?
Answer: 0.4%

Question: For B2, which “In vitro activity … (%) vs GIP” value is on record?
Answer: 0.7%

Question: For B3, which “In vitro activity … (%) vs GIP” value is on record?
Answer: 0.2%

Question: With B4 as the binder, how does the “In vitro activity … (%) vs GIP” value read?
Answer: < 0.1%

Question: For B5, which “In vitro activity … (%) vs GIP” value is on record?
Answer: < 0.1%

Question: For B6, which “In vitro activity … (%) vs GIP” value is on record?
Answer: 0.3%

Question: How did the “In vitro activity … (%) vs GIP” value turn out when B7 was run?
Answer: < 0.1%

Question: B8 was tested. Which “In vitro activity … (%) vs GIP” value did it give?
Answer: < 0.1%

Question: With B9 as the binder, how does the “In vitro activity … (%) vs GIP” value read?
Answer: 47.1%

Question: Which “In vitro activity … (%) vs GIP” value does the source give for B10 here?
Answer: < 0.1%

Question: How did the “In vitro activity … (%) vs GIP” value turn out when B11 was run?
Answer: 118%

Question: For B12, which “In vitro activity … (%) vs GIP” value is on record?
Answer: < 0.1%

Question: How did the “In vitro activity … (%) vs GIP” value turn out when B13 was run?
Answer: < 0.1%

Question: With B14 as the binder, how does the “In vitro activity … (%) vs GIP” value read?
Answer: 2.6%

Question: B15 was tested. Which “In vitro activity … (%) vs GIP” value did it give?
Answer: < 0.1%

Each binder was assayed against human GCG receptor (human, UniProt P47871 26-477) (assay: cell-based or functional assay).
Chain of human GCG receptor (P47871 26-477): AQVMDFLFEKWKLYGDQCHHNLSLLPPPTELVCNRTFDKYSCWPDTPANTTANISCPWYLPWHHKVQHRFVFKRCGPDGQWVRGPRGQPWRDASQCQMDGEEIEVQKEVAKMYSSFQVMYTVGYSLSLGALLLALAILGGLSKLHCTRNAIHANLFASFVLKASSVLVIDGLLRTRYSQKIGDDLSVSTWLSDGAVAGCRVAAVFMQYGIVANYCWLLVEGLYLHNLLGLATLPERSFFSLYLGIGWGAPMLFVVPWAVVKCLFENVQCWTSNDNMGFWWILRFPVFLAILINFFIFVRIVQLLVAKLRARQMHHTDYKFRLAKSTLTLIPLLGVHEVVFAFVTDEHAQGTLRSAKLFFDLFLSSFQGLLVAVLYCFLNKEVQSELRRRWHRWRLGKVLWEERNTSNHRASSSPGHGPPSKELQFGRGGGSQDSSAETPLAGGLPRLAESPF

Question: How did the “In vitro activity compared to native peptide (%) vs Glucagon” value (“In vitro activity … (%) vs Glucagon” for short) turn out when B1 was run?
Answer: < 0.1%

Question: With B2 as the binder, how does the “In vitro activity … (%) vs Glucagon” value read?
Answer: 0.3%

Question: For B3, which “In vitro activity … (%) vs Glucagon” value is on record?
Answer: 0.4%

Question: For B4, which “In vitro activity … (%) vs Glucagon” value is on record?
Answer: 0.3%

Question: B5 was tested. Which “In vitro activity … (%) vs Glucagon” value did it give?
Answer: < 0.1%

Question: B6 was tested. Which “In vitro activity … (%) vs Glucagon” value did it give?
Answer: 16.8%

Question: How did the “In vitro activity … (%) vs Glucagon” value turn out when B7 was run?
Answer: < 0.1%

Question: How did the “In vitro activity … (%) vs Glucagon” value turn out when B8 was run?
Answer: < 0.1%

Question: B9 was tested. Which “In vitro activity … (%) vs Glucagon” value did it give?
Answer: 8.2%

Question: Which “In vitro activity … (%) vs Glucagon” value does the source give for B10 here?
Answer: 0.3%

Question: How did the “In vitro activity … (%) vs Glucagon” value turn out when B11 was run?
Answer: 12.7%

Question: B12 was tested. Which “In vitro activity … (%) vs Glucagon” value did it give?
Answer: < 0.1%

Question: For B13, which “In vitro activity … (%) vs Glucagon” value is on record?
Answer: 1.1%

Question: How did the “In vitro activity … (%) vs Glucagon” value turn out when B14 was run?
Answer: 62.8%

Question: With B15 as the binder, how does the “In vitro activity … (%) vs Glucagon” value read?
Answer: < 0.1%
